Results from FireProtDB (doi:10.1021/bi00158a021).

Conditions: Bos taurus, pH 8, GdnHCl, CD, cacodylate 50 mM, reversible: yes

Row | Substance | ddG of mutation (higher = less stable) (30 °C, structure 1BP2) | denaturant m value (30 °C, structure 1BP2) | denaturant midpoint (higher = more stable) (30 °C, structure 1BP2) | unfolding free energy (30 °C, structure 1BP2) | also measured
1 | Phospholipase A2 F44I, P00593 | -2.7 kcal/mol | 1.73 kcal/mol/M | 7 M | 12.2 kcal/mol | –
2 | Phospholipase A2 F44Y, P00593 | -1.5 kcal/mol | 1.58 kcal/mol/M | 7 M | 11 kcal/mol | –
3 | Phospholipase A2 F128A, P00593 | – | – | – | – | ddG of mutation (higher = less stable) (25 °C, structure 1BP2): 0.9 kcal/mol; denaturant m value (25 °C, structure 1BP2): 1.47 kcal/mol/M; denaturant midpoint (higher = more stable) (25 °C, structure 1BP2): 5.9 M; unfolding free energy (25 °C, structure 1BP2): 8.6 kcal/mol
4 | Phospholipase A2 F128I, P00593 | -1.9 kcal/mol | 1.65 kcal/mol/M | 6.9 M | 11.4 kcal/mol | –
5 | Phospholipase A2 F128Y, P00593 | -0.6 kcal/mol | 1.53 kcal/mol/M | 6.6 M | 10.1 kcal/mol | –
6 | Phospholipase A2 wild type, P00593 | – | – | – | – | denaturant m value (30 °C): 1.47 kcal/mol/M; denaturant midpoint (higher = more stable) (30 °C): 6.9 M; unfolding free energy (30 °C): 9.5 kcal/mol
